2 molecules from PMC3097272 (The FEBS journal, 2011) can be followed below.

Assay [1] concerns the target non-muscle human F-actin (human) (UniProt P60709). Kind of assay: co-sedimentation.
Assay [2] addresses rabbit skeletal muscle myosin II (rabbit, UniProt Q28641 1-1938; P02602 1-192; P02608 1-170). The experiment in a line: co-sedimentation.

Chain of rabbit skeletal muscle myosin II (Q28641 whole entry, chain 1 of 3): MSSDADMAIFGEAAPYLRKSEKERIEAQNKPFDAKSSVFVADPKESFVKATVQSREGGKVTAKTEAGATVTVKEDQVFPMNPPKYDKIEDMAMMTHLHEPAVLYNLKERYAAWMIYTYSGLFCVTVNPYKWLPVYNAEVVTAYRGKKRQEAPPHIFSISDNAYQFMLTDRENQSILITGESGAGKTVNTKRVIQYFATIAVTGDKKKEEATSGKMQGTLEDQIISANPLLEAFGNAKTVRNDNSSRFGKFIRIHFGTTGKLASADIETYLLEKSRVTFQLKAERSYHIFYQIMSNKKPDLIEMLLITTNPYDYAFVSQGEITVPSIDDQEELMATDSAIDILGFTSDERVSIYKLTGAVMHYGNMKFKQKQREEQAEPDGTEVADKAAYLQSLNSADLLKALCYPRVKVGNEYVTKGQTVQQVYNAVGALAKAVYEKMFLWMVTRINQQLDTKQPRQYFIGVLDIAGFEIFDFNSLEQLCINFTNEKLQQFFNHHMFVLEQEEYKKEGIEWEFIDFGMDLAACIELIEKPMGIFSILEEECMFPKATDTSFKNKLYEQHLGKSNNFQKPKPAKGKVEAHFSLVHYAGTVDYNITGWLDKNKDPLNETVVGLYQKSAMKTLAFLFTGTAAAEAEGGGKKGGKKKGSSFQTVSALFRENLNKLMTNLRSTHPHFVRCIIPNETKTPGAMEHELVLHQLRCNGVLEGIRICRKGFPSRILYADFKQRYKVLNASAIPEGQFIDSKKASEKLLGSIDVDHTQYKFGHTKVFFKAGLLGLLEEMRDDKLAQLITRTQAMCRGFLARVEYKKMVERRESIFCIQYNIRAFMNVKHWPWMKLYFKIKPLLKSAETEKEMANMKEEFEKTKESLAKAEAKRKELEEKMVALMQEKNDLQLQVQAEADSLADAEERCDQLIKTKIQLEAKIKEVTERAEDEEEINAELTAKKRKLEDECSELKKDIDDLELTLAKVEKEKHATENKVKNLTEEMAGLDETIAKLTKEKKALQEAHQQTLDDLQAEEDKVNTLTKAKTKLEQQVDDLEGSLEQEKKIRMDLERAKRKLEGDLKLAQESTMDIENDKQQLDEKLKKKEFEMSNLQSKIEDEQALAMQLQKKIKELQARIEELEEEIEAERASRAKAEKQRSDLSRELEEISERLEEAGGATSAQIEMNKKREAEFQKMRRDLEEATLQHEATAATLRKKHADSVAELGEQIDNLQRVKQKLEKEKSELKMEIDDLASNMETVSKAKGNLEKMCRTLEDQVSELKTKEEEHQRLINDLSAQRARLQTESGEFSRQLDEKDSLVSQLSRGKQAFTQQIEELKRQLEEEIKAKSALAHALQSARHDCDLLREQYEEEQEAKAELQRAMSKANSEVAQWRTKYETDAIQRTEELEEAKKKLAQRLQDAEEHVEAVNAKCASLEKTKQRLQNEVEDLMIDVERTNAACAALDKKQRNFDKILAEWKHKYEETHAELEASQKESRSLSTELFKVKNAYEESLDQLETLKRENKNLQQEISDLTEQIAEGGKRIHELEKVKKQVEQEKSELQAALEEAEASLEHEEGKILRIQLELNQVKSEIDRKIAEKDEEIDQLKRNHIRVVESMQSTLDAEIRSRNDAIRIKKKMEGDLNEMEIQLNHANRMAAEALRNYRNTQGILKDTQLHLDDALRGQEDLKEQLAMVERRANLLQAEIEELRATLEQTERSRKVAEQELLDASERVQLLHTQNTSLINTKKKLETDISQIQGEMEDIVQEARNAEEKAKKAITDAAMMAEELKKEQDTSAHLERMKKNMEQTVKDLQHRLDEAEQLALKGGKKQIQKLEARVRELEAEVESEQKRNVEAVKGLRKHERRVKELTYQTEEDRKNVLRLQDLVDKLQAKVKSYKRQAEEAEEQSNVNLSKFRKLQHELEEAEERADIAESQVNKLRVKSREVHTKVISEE
Chain of rabbit skeletal muscle myosin II (P02602 2-192, chain 2 of 3): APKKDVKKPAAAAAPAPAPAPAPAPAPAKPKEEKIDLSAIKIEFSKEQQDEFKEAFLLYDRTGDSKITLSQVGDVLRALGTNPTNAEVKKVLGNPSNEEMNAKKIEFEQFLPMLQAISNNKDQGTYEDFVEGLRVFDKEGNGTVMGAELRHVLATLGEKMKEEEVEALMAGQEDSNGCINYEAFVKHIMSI
Chain of rabbit skeletal muscle myosin II (P02608 2-170, chain 3 of 3): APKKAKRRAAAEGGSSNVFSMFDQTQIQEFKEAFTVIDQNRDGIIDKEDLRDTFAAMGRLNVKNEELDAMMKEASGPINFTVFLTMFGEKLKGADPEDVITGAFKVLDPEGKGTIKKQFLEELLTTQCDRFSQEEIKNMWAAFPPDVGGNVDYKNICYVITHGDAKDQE

As for “recombinant HGAL protein (Trx-HGAL fusion protein) (from UniProt Q8N6F7 1-178) (natural protein)”, in assay [1], the stoichiometry N (molar ratio (to 1)) was determined as 5.

B1: recombinant HGAL protein (Trx-HGAL fusion protein) (natural protein, human, UniProt Q8N6F7 1-178, looked up)
chain: MGNSLLRENRRQQNTQEMPWNVRMQSPKQRTSRCWDHHIAEGCFCLPWKKILIFEKRQDSQNENERMSSTPIQDNVDQTYSEELCYTLINHRVLCTRPSGNSAEEYYENVPCKAERPRESLGGTETEYSLLHMPSTDPRHARSPEDEYELLMPHRISSHFLQQPRPLMAPSETQFSHL
In general, stoichiometry N refers to the number of molecules, sites or subunits per partner or assembly. Take B1: the “stoichiometry N” value in assay [2] is 2.5 molar ratio (to 1).
